Experimental data published in doi:10.1101/2025.05.20.655083, “Importin α/β1 dependent nuclear import of Black Sea Bass Polyomavirus Large Tumor Antigen is mediated by a classical NLS located downstream of the SF3 helicase domain” (bioRxiv, 2025).
Where no end group is shown, it is not given here. The star is where a group is joined. FITC = O=C1OC2(c3ccc(O)cc3Oc3cc(O)ccc32)c2ccc(NC(=S)*)cc21; Ahx = NCCCCCC(=O)O

Assays:
Assay in all cases: native gel or EMSA; 1.5% agarose gel in TB buffer (0.45 mM tris, 0.45 mM boric acid, pH ~8.5), 2 hours at 75 V; recombinant IMPs 20 μM, FITC peptides 10 μM; peptides seen with a UV filter, proteins by Coomassie staining
Settings in all cases: both partners purified
[1] = biological target: T1, human importin β2 (human, UniProt Q92973 1-898)
T1 construct: human importin β2; In pET30a with His tag and TEV site; no cleavage step is described in the purification; also called hIMPβ2; IMPβ2; source: E. coli BL21(DE3)pLysS, purified (HisTrap, Superdex 200 SEC)
T1 sequence (looked up): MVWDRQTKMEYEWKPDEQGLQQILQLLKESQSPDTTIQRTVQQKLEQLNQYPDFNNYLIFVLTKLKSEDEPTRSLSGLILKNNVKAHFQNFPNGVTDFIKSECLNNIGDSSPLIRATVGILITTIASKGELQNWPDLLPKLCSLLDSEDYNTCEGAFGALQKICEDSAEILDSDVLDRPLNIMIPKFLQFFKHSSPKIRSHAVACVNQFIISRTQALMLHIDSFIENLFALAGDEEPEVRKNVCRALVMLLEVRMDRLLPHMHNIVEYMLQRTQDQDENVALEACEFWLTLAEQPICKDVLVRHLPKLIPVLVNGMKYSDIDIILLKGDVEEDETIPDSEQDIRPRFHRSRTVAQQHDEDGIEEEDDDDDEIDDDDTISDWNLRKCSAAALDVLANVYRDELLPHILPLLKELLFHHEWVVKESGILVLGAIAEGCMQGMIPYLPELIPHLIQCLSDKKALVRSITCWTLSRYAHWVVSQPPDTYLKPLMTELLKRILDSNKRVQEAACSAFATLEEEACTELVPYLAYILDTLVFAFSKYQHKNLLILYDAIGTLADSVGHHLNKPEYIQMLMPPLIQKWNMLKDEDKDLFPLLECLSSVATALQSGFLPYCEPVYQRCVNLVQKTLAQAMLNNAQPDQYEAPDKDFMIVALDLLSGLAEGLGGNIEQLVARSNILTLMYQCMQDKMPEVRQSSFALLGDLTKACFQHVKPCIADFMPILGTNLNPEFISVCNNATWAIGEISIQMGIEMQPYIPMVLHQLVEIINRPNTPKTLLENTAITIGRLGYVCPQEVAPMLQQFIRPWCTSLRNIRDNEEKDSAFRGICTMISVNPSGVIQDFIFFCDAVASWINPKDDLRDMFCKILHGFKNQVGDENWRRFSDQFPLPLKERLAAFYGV

[2] = biological target: T2, human importin β3 (human, UniProt O00410 1-1097)
T2 construct: human importin β3; In pET30a with His tag and TEV site; no cleavage step is described in the purification; also called hIMPβ3; IMPβ3; source: E. coli BL21(DE3)pLysS, purified (HisTrap, Superdex 200 SEC)
T2 sequence (looked up): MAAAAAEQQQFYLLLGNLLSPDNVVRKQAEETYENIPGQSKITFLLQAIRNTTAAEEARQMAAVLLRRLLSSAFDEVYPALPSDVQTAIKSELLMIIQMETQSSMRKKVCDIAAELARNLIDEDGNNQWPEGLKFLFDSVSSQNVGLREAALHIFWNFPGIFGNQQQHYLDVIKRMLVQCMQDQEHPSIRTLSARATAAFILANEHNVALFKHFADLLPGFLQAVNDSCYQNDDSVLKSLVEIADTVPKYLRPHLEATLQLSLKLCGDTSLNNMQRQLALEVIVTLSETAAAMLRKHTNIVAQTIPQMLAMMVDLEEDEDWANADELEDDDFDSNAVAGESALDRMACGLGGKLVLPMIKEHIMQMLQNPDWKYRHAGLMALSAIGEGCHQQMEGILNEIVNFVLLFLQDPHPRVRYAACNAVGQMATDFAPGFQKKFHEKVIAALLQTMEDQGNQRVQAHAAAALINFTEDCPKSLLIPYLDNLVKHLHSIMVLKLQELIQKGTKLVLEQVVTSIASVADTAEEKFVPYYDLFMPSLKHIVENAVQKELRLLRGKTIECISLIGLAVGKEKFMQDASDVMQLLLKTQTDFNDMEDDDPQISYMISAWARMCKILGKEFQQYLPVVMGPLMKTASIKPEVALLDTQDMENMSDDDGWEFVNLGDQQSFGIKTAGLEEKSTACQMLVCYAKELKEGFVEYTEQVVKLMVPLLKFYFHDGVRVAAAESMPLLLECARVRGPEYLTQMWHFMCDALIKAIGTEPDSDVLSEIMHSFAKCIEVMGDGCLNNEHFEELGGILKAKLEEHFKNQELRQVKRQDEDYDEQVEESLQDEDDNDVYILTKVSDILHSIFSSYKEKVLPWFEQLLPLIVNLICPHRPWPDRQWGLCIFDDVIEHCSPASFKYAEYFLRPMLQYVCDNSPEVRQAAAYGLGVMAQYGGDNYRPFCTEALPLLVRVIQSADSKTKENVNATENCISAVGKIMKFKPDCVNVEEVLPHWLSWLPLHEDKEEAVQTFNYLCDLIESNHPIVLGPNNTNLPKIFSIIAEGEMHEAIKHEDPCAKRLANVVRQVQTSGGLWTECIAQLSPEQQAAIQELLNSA

[3] = biological target: T3, human importin β1 (human, UniProt Q14974 1-876)
T3 construct: human importin β1; In pMCSG21 with His tag and TEV site; no cleavage step is described in the purification; also called hIMPβ1; IMPβ1; source: E. coli BL21(DE3)pLysS, purified (HisTrap, Superdex 200 SEC)

Measured: binding result

T3 sequence (Q14974 whole entry): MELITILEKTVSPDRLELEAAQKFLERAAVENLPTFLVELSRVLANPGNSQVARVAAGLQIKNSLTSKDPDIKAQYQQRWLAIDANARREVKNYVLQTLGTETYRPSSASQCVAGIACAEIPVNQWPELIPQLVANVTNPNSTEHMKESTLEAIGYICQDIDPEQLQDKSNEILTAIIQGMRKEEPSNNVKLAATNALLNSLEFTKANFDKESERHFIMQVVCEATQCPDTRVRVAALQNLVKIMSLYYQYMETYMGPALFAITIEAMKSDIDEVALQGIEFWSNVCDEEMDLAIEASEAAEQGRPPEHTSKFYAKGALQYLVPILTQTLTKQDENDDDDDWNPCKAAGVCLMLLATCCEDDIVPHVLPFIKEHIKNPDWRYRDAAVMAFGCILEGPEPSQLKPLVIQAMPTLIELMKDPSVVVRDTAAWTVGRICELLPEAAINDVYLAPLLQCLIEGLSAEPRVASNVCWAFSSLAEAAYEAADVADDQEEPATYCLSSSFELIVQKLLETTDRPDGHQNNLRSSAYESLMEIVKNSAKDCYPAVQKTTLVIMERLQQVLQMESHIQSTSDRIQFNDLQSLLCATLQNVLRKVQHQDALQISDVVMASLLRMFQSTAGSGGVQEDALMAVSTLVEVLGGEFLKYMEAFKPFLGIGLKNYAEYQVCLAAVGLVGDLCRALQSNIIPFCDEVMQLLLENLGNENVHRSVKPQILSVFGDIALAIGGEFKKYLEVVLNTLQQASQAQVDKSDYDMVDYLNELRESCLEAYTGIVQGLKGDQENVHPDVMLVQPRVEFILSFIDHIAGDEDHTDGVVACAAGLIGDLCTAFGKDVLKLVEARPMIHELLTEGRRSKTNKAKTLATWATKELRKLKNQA

B1: BSB PyV-LTA;NLS peptide (Black Sea Bass polyomavirus large tumor antigen residues 660-683) (peptide)
peptide: {FITC-Ahx}-IAEYKRRHNIGSDGLPNKRRRCLF
notes: also called BSB PyV-LTA 660-683; BSBPyV LTA FITC-NLS peptide
binds: all assays above
